Experimental findings from publication PMC10689493 (Nature Communications, 2023) are described below.

Experiment [1] has as its target biotinylated SARS-CoV-2 Spike protein (WA-2, 2 P) (SARS-CoV-2 WA-2 (entry: reference …, UniProt P0DTC2, stabilised, biotinylated)).
The next experiment has as its target OC43 Spike protein, 2 P (human coronavirus OC43, isolate not …, UniProt P36334, stabilised). The experiment in a line: ELISA. The settings on record: both partners purified.
For experiment [2], the target named is T1, synthesized SARS-CoV-2 stem helix peptide (residues 1147-1161) (SARS-CoV-2, UniProt P0DTC2).
T1 construct: source: synthetic peptide
The experiment in a line: ELISA. Conditions: both partners purified.

The target of experiment [3] is T2, S2hlx-Ex19 epitope scaffold (synthetic design (Mus musculus VPS54 …)).
T2 construct: source: E. coli BL-21 (DE3), purified (Ni-NTA, SEC)
T2 chain: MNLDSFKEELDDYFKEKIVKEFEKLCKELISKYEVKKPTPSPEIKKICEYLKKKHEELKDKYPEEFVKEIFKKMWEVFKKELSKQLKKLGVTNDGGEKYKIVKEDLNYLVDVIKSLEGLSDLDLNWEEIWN
The experiment in a line: SPR. The settings on record: both partners purified.

Experiment [4] concerns the target T3, synthesized stem helix peptide (1140-1164) (SARS-CoV-2, UniProt P0DTC2).
T3 chain: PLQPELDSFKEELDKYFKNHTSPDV
The experiment in a line: ELISA. The settings on record: both partners purified.

The target in another experiment is T4, S2hlx-7 epitope scaffold (synthetic design (Rhodopseudomonas …)).
T4 construct: source: E. coli BL-21 (DE3), purified (Ni-NTA, SEC)
T4 chain: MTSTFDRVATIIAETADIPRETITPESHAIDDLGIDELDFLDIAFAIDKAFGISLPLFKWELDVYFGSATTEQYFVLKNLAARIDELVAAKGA
The experiment in a line: SPR. The settings on record: both partners purified.

B1: DH1501.3 (antibody, V domains shown)
VH: QVQLVQSGAEVKKPGASVRLSCKASGDTFTNEYVQWVRQAPGQGLEWMGLINPSGSGTAFARNFQGRVSMTRDTSTRTVYMDLTSLRYEDTAVYYCARMSRAGTFDLWGQGTMVTVSS
VL: EIVLTQSPDTLSLSLGERATLFCRASETIDSRYLAWYQQKPGRAPRLLMSGTSVRATGIPDRFSGSGSGTDFTLTITRLEPEDFAVYYCQQYGSSPPRYTFGQGTKLAMK
B1: the binding result in experiment [1] is “binds”.

B2: DH1501.2 (antibody, V domains shown)
VH: EVQLVESGAEVKKPGASVRLSCKASGDTFNNKYVHWVRQAPGQGLEWMGLINPSGSGTAFAQKFQGRVSMTRDTSTRTVYLGLTSLTYEDTAVYYCARMSRAGTFDIWDQGTMVTVSS
VL: EIVLTQSPGTLSLSPGDRATLSCRASENVGTSYLAWYQQKPGQAPRLLISGTSSRATGVPDRFSGSGSGRDFTLTISRLEPEDFAVYYCQQYGSSPPRYTFGQGTKLDMK
In the case of B2, in experiment [1], the binding result is listed as “binds”.

B3: S2P6 mAb (antibody, V domains shown)
VH: EVQLVQSGAEVKKPGASVKVSCKASGYTFTSQYMHWVRQAPGQGLEWIGIINPSGVHTSYAQKFQGRVTLTRDTSTSTLYMELSSLRSEDTAVYYCARGSPKGAFDYWGQGTLVTVSS
VL: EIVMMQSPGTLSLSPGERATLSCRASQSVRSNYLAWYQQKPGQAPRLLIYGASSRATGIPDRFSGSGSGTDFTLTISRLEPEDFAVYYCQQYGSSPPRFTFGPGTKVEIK
notes: IgG; IGHV1-46/IGKV3-20; source: Expi293F, transfected, purified (Protein A)
Regarding B3, the binding result with OC43 Spike protein, 2 P was “binds”.

B4: CC40.8 mAb (antibody, V domains shown)
VH: EVQLLESGGGLVQPGGSLRLSCAASGFTFSSYVMTWARQAPGKGLEWVSAISGTGYTYYADSVKGRFTVSRDNSKNTLFLQMSSLRAEDTAVYYCAITMAPVVWGQGTTVTVSS
VL: SYELTQPPSVSVSPGQTARITCSGDALPKRYAYWYQQKSGQAPILVIYEDKKRPSGIPERLSGSKSGTVATLTISGAQVEDEADYYCYSTDSSGNHAVFGGGTQLTVL
notes: IgG; source: Expi293F, transfected, purified (Protein A)
As to B4, the binding result with OC43 Spike protein, 2 P was “binds”; in experiment [2], “no binding”. The molecule also gave a Kd in experiment [3] of 6.7 nM.

B5: DH1057.1 mAb (antibody, V domains shown)
VH: EVQLVESGTEVKKPGASVKVSCKTSGYIFTNYYIHWVRQAPGQGLEWMGIFNPNGGGTSYAQKFQGRITLTGNTSANTGYMVLRSLTSEDTAVYYCARDPRTSGDNDGFDMWGQGTKVTVSS
VL: VLTQSPATLSLSPGERATLSCRASQSLSSYNYLAWYQQKPGQAPRLLIYAASKRATGIPARFSGSGSGTDFTLTISSLEPEDFAVYFCQQRSNRPPAWTFGQGTKVEIK
notes: source: Expi293F, transfected, purified (Protein A)
As for B5, the binding result in experiment [2] and in experiment [4] was “binds” throughout. The “fold better binding than spike” value with S2hlx-7 epitope scaffold is over 10 fold.

B6: DH1501.1 (antibody, V domains shown)
VH: EVQLVESGAEVKKPGASVRVSCKASGFTFTDHYMHWVRQAPGQGLEWMGLINPTGVNTFYAQNFRGRVTMTRDTSTKTDYLEVRSLTSQDTAMYYCARMSRYGAFDIWGQGTMVTVSL
VL: EIVLTQSPGTLSLSPGERATLSCRASQSVGSGYLAWYQQKPGQAPRLLIYGASVRATGIPDRFSGSGSGTDFSLTINRVEPEDFAMYYCQNYGSSPPRYTFGQGTKLEIK
With B6, the binding result in experiment [1] is recorded as “binds”.
